Reference: patent US20040228866A1 (LUDWIG INSTITUTE FOR CANCER RESEARCH, published 2004)
Values belong to the binder of their own block, whether it stands above or below them.

What was measured:
p63γ = target: T1, p63γ (UniProt Q9H3D4-5 40-487, limits assumed); assay: cell-based or functional assay
T1 sequence (looked up): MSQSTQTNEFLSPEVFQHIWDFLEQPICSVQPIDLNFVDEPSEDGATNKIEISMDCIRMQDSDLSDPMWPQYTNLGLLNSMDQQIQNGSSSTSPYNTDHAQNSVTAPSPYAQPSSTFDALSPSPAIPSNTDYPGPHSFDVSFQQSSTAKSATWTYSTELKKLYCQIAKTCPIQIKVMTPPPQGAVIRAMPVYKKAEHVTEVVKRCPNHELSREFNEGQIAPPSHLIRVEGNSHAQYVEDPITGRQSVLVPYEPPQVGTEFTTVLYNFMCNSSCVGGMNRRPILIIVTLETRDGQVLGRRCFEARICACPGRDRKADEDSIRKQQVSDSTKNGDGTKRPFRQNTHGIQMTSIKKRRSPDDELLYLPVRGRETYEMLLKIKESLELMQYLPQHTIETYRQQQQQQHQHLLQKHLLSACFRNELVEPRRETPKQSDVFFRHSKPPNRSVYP

p53 (wild type) = p53 (wild type) (human, UniProt P04637 1-393); assay: cell-based or functional assay
p53 (wild type), sequence (P04637 whole entry): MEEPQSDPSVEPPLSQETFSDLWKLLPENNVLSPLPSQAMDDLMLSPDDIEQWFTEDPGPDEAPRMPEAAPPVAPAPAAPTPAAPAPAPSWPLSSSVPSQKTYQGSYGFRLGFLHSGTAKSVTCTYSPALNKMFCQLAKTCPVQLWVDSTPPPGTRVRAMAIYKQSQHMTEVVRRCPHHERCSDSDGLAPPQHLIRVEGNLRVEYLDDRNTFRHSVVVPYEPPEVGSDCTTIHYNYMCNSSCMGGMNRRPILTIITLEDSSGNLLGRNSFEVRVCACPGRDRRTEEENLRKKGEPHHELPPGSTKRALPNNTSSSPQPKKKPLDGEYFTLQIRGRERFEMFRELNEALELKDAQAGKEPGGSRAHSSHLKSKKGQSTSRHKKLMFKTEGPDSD

transactivation function on the Bax promoter (Bax-luc reporter) (p63γ): 4 fold
transactivation function on the Bax promoter (Bax-luc reporter) (p53 (wild type)): ~6 fold
B1: Apoptosis Stimulating Protein 1 (ASPP1) (other)
chain: MMPMILTVFLSNNEQILTEVPITPETTCRDVVEFCKEPGEGSCHLAEVWRGNERPIPFDHMMYEHLQIWGPRREEVKFFLRHEDSPTENSEQGGRQTQEQRTQRNVINVPGDKRTEYGVGNPRVELTLSELQDMAARQQQQIENQQQMLVAKEQRLHFLKQQERRQQQSISENEKLQKLKERVEAQENKLKKIRAMRGQVDYSKIMNGNLSAEIERFSAMFQEKKQEVQTAILRVDQLSQQLEDLKKGKLNGFQSYNGKLTGPAAVELKRLYQELQIRNQLNQEQNSKLQQQKELLNKRNMEVAMMDKRISELRERLYGKKIQLNRVNGTSSPQSPLSTSGRVAAVGPYIQVPSAGSFPVLGDPIKPQSLSIASNAAHGRSKSANDGNWPTLKQNSSSSVKPVQVAGADWKDPSVEGSVKQGTVSSQPVPFSALGPTEKPGIEIGKVPPPIPGVGKQLPPSYGTYPSPTPLGPGSTSSLERRKEGSLPRPSAGLPSRQRPTLLPATGSTPQPGSSQQIQQRISVPPSPTYPPAGPPAFPAGDSKPELPLTVAIRPFLADKGSRPQSPRKGPQTVNSSSIYSMYLQQATPPKNYQPAAHSALNKSVKAVYGKPVLPSGSTSPSPLPFLHGSLSTGTPQPQPPSESTEKEPEQDGPAAPADGSTVESLPRPLSPTKLTPIVHSPLRYQSDADLEALRRKLANAPRPLKKRSSITEPEGPGGPNIQKLLYQRFNTLAGGMEGTPFYQPSPSQDFMGTLADVDNGNTNANGNLEELPPAQPTAPLPAEPAPSSDANDNELPSPEPEELICPQTTHQTAEPAEDNNNNVATVPTTEQIPSPVAEAPSPGEEQVPPAPLPPASHPPATSTNKRTNLKKPNSERTGHGLRVRFNPLALLLDASLEGEFDLVQRIIYEVEDPSKPNDEGITPLHNAVCAGHHHIVKFLLDFGVNVNAADSDGWTPLHCAASCNSVHLCKQLVESGAAIFASTISDIETAADKCEEMEEGYIQCSQFLYGVQEKLGVMNKGVAYALWDYEAQNSDELSFHEGDALTILRRKDESETEWWWARLGDREGYVPKNLLGLYPRIKPRQRTLA

transactivation function on the Bax promoter (Bax-luc reporter) (p63γ): 7 fold
transactivation function on the Bax promoter (Bax-luc reporter) (p53 (wild type)): 20 fold
B2: ASPP2 (1-1128) (other)
chain: MMPMFLTVYLSNNEQHFTEVPVTPETICRDVVDLCKEPGESDCHLAEVWCGSERPVADNERMFDVLQRFGSQRNEVRFFLRHERPPGRDIVSGPRSQDPSLKRNGVKVPGEYRRKENGVNSPRMDLTLAELQEMASRQQQQIEAQQQLLATKEQRLKFLKQQDQRQQQQVAEQEKLKRLKEIAENQEAKLKKVRALKGHVEQKRLSNGKLVEEIEQMNNLFQQKQRELVLAVSKVEELTRQLEMLKNGRIDSHHDNQSAVAELDRLYKELQLRNKLNQEQNAKLQQQRECLNKRNSEVAVMDKRVNELRDRLWKKKAALQQKENLPVSSDGNLPQQAASAPSRVAAVGPYIQSSTMPRMPSRPELLVKPALPDGSLVIQASEGPMKIQTLPNMRSGAASQTKGSKIHPVGPDWSPSNADLFPSQGSASVPQSTGNALDQVDDGEVPLREKEKKVRPFSMFDAVDQSNAPPSFGTLRKNQSSEDILRDAQVANKNVAKVPPPVPTKPKQINLPYFGQTNQPPSDIKPDGSSQQLSTVVPSMGTKPKPAGQQPRVLLSPSIPSVGQDQTLSPGSKQESPPAAAVRPFTPQPSKDTLLPPFRKPQTVAASSIYSMYTQQQAPGKNFQQAVQSALTKTHTRGPHFSSVYGKPVIAAAQNQQQHPENIYSNSQGKPGSPEPETEPVSSVQENHENERIPRPLSPTKLLPFLSNPYRNQSDADLEALRKKLSNAPRPLKKRSSITEPEGPNGPNIQKLLYQRTTIAAMETISVPSYPSKSASVTASSESPVEIQNPYLHVEPEKEVVSLVPESLSPEDVGNASTENSDMPAPSPGLDYEPEGVPDNSPNLQNNPEEPNPEAPHVLDVYLEEYPPYPPPPYPSGEPEGPGEDSVSMRPPEITGQVSLPPGKRTNLRKTGSERIAHGMRVKFNPLALLLDSSLEGEFDLVQRIIYEVDDPSLPNDEGITALHNAVCAGHTEIVKFLVQFGVNVNAADSDGWTPLHCAASCNNVQVCKFLVESGAAVFAMTYSDMQTAADKCEEMEEGYTQCSQFLYGVQEKMGIMNKGVIYALWDYEPQNDDELPMKEGDCMTIIHREDEDEIEWWWARLNDKEGYVPRNLLGLYPRIKPRQRSLA
